According to the supplement of paper PMC10724198:
± gives the standard deviation of the averaged measurements.

Experiments:
[1] = system: Saccharomyces cerevisiae; experiment: protein stability index of tFT-peptide fusion (C-terminal peptide) (PSI (0-1 scale)); higher = more stable (slower turnover)
Protocol: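 MPS profiling in S. cerevisiae of the tFT-X12 degron library: putative degron peptides plus stable controls, 12 aa, fused to the C-terminus of a sfGFP-mCherry timer. Cells are FACS-sorted into 8 mCherry/sfGFP bins and deep-sequenced. PSI runs from 0 (unstable) to 1 (stable). Backgrounds are wild type, das1Δ and doa10Δ at 30 °C, and wild type, das1Δ, cdc34-1 and cdc53-1 at 37 °C; 2-3 technical replicates each.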

[2] = system: Saccharomyces cerevisiae; experiment: as above; conditions: genetic background: wild type; temperature: 30 C
[3] = genetic background: cdc34-1, temperature: 37 C
[4] = genetic background: cdc53-1, temperature: 37 C
[5] = genetic background: das1 deletion, temperature: 30 C
[6] = genetic background: das1 deletion, temperature: 37 C
[7] = genetic background: doa10 deletion, temperature: 30 C
[8] = genetic background: wild type, temperature: 30 C
[9] = genetic background: wild type, temperature: 37 C
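Also: PSI is a weighted mean of sequencing reads over stability bins, variants kept only with over 10 reads, mCherry proximal and sfGFP distal, peptide attached via GGGS linker.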

Sequence | protein stability index [1, 3] | protein stability index [1, 4] | protein stability index [1, 5] | protein stability index [1, 6] | protein stability index [1, 7] | protein stability index [1, 8] | protein stability index [1, 9] | protein stability index [2]
VDFCLLFLLLLV | 0.427 ± 0.041 | 0.442 ± 0.0072 | 0.349 ± 0.034 | 0.482 ± 0.032 | 0.425 ± 0.027 | 0.331 ± 0.02 | 0.462 ± 0.014 | 0.432 ± 0.025
VFCLPISAPPLH | 0.679 ± 0.0083 | 0.739 ± 0.022 | 0.642 ± 0.023 | 0.727 ± 0.0031 | 0.626 ± 0.02 | 0.635 ± 0.019 | 0.7027 ± 0.0031 | 0.685 ± 0.023
VFCMVLPFVLLT | 0.126 ± 0.018 | 0.0906 ± 0.016 | 0.194 ± 0.024 | 0.2715 ± 0.0011 | 0.1776 ± 0.0015 | 0.136 ± 0.02 | 0.157 ± 0.016 | 0.214 ± 0.035
VFFCVLRVFFSA | 0.0798 ± 0.024 | 0.161 ± 0.015 | 0.175 ± 0.024 | 0.291 ± 0.0075 | 0.114 ± 0.013 | 0.132 ± 0.029 | 0.195 ± 0.0091 | 0.193 ± 0.017
VFFIFFFAFLFF | 0.294 ± 0.035 | 0.289 ± 0.0075 | 0.335 ± 0.052 | 0.41 ± 0.0072 | 0.393 ± 0.01 | 0.322 ± 0.014 | 0.39 ± 0.03 | 0.329 ± 0.051
VFFMFVFFPFPG | 0.523 ± 0.084 | 0.584 ± 0.035 | 0.404 ± 0.029 | 0.592 ± 0.03 | 0.368 ± 0.014 | 0.413 ± 0.028 | 0.538 ± 0.0059 | 0.471 ± 0.026
VFGSRCLLTVVV | 0.472 ± 0.0098 | 0.477 ± 0.023 | 0.367 ± 0.032 | 0.5185 ± 0.0017 | 0.336 ± 0.018 | 0.358 ± 0.043 | 0.504 ± 0.0071 | 0.438 ± 0.043
VFGWWSVVLRVA | 0.0612 ± 0.0012 | 0.0938 ± 0.009 | 0.166 ± 0.027 | 0.249 ± 0.0082 | 0.0577 ± 0.014 | 0.0694 ± 0.017 | 0.0612 ± 0.011 | 0.109 ± 0.029
VFILGFLCLLFF | 0.403 ± 0.03 | 0.428 ± 0.014 | 0.342 ± 0.017 | 0.497 ± 0.077 | 0.362 ± 0.045 | 0.334 ± 0.024 | 0.445 ± 0.054 | 0.355 ± 0.036
VFIPFGFCLCFV | 0.408 ± 0.012 | 0.4114 ± 0.0039 | 0.317 ± 0.019 | 0.466 ± 0.0087 | 0.318 ± 0.015 | 0.295 ± 0.017 | 0.4401 ± 0.0027 | 0.373 ± 0.0028
VFLCFSWHFFLF | 0.4543 ± 0.0039 | 0.591 ± 0.035 | 0.411 ± 0.037 | 0.559 ± 0.036 | 0.297 ± 0.0049 | 0.304 ± 0.029 | 0.467 ± 0.011 | 0.405 ± 0.012
VFLVGFRVTLDS | 0.267 ± 0.035 | 0.289 ± 0.011 | 0.219 ± 0.025 | 0.404 ± 0.018 | 0.189 ± 0.018 | 0.215 ± 0.033 | 0.419 ± 0.0069 | 0.295 ± 0.0062
VFSFWVLCEVSV | 0.0333 ± 0.0097 | 0.0546 ± 0.015 | 0.0315 ± 0.0099 | 0.0841 ± 0.013 | 0.0219 ± 0.0031 | 0.0221 ± 0.0057 | 0.072 ± 0.02 | 0.04525 ± 0.0004
VFVFTFSLSFYC | 0.223 ± 0.031 | 0.326 ± 0.0073 | 0.25 ± 0.028 | 0.356 ± 0.019 | 0.257 ± 0.02 | 0.274 ± 0.018 | 0.3241 ± 0.0021 | 0.3465 ± 0.0031
VFVRDFLVSIVV | 0.0474 ± 0.014 | 0.0563 ± 0.0023 | 0.174 ± 0.025 | 0.196 ± 0.0061 | 0.139 ± 0.0096 | 0.164 ± 0.022 | 0.166 ± 0.011 | 0.257 ± 0.014
VFWVLVSFLFYV | 0.339 ± 0.011 | 0.406 ± 0.012 | 0.307 ± 0.028 | 0.4496 ± 0.0013 | 0.281 ± 0.014 | 0.3 ± 0.018 | 0.4059 ± 0.0036 | 0.346 ± 0.023
VFWVVFRALVGD | 0.191 ± 0.015 | 0.29497 ± 0.00028 | 0.217 ± 0.018 | 0.269 ± 0.02 | 0.222 ± 0.013 | 0.212 ± 0.0029 | 0.26 ± 0.0051 | 0.233 ± 0.022
VGAGVFAWLWVA | 0.533 ± 0.02 | 0.664 ± 0.016 | 0.59 ± 0.016 | 0.7101 ± 0.001 | 0.128 ± 0.025 | 0.145 ± 0.024 | 0.135 ± 0.0078 | 0.199 ± 0.024
VGAYSVVYVVFS | 0.481 ± 0.026 | 0.517 ± 0.011 | 0.322 ± 0.026 | 0.5467 ± 0.00081 | 0.272 ± 0.0067 | 0.318 ± 0.025 | 0.529 ± 0.0059 | 0.433 ± 0.036
VGVLWALIVGVR | 0.167 ± 0.011 | 0.226 ± 0.02 | 0.191 ± 0.035 | 0.36 ± 0.0087 | 0.159 ± 0.0094 | 0.18 ± 0.012 | 0.289 ± 0.043 | 0.251 ± 0.035
VGVYVWRGVLWA | 0.277 ± 0.025 | 0.402 ± 0.035 | 0.257 ± 0.024 | 0.444 ± 0.0077 | 0.184 ± 0.0022 | 0.218 ± 0.028 | 0.397 ± 0.024 | 0.296 ± 0.044
VHHAFLPYTLVR | 0.502 ± 0.021 | 0.57 ± 0.011 | 0.375 ± 0.028 | 0.591 ± 0.017 | 0.361 ± 0.011 | 0.407 ± 0.019 | 0.5709 ± 0.0043 | 0.485 ± 0.01
VHNIDLFVVCYI | 0.433 ± 0.025 | 0.443 ± 0.014 | 0.251 ± 0.047 | 0.482 ± 0.0094 | 0.222 ± 0.0048 | 0.258 ± 0.027 | 0.451 ± 0.015 | 0.346 ± 0.0067
VIAFFSVLKRYV | 0.641 ± 0.0088 | 0.704 ± 0.011 | 0.58 ± 0.037 | 0.712 ± 0.0078 | 0.199 ± 0.0083 | 0.241 ± 0.0073 | 0.465 ± 0.0052 | 0.421 ± 0.016
VKSAVLLFFLVT | 0.357 ± 0.0084 | 0.483 ± 0.019 | 0.359 ± 0.031 | 0.537 ± 0.0055 | 0.178 ± 0.016 | 0.199 ± 0.021 | 0.312 ± 0.01 | 0.257 ± 0.0044
VLFFLVTSSVYF | 0.124 ± 0.036 | 0.263 ± 0.03 | 0.201 ± 0.031 | 0.37 ± 0.0049 | 0.159 ± 0.0068 | 0.187 ± 0.0095 | 0.327 ± 0.0083 | 0.269 ± 0.04
VLPCSLVPLRLH | 0.66 ± 0.015 | 0.704 ± 0.029 | 0.642 ± 0.012 | 0.702 ± 0.011 | 0.349 ± 0.013 | 0.374 ± 0.026 | 0.548 ± 0.0098 | 0.445 ± 0.014
VLPLRCSWAAQG | 0.693 ± 0.007 | 0.7521 ± 0.005 | 0.639 ± 0.026 | 0.747 ± 0.027 | 0.246 ± 0.019 | 0.298 ± 0.013 | 0.538 ± 0.044 | 0.39 ± 0.035
VMLIRVSRGIKC | 0.359 ± 0.044 | 0.463 ± 0.13 | 0.293 ± 0.024 | 0.4846 ± 0.0047 | 0.242 ± 0.0097 | 0.29 ± 0.038 | 0.473 ± 0.0067 | 0.41 ± 0.0097
VMLVISRLLLLF | 0.465 ± 0.058 | 0.523 ± 0.0094 | 0.455 ± 0.033 | 0.613 ± 0.018 | 0.111 ± 0.0019 | 0.105 ± 0.017 | 0.168 ± 0.018 | 0.174 ± 0.021
